{
  "source": "paper PMC11459929",
  "about": "“Novel humanized anti-PcrV monoclonal antibody COT-143 protects mice from lethal Pseudomonas aeruginosa infection via inhibition of toxin translocation by the type III secretion system” (Antimicrobial Agents and Chemotherapy, 2024)",
  "molecular_target": "T1, PcrV (130–263) (Pseudomonas aeruginosa, UniProt G3XD49)",
  "T1 construct": "PcrV, type III secretion system needle-tip protein of Pseudomonas aeruginosa, residues 130Ala-263Asn; also called recombinant PcrV (130–263); partial PcrV (130–263); source: E. coli, purified (Profinity eXact Fusion-Tag system, Superdex75)",
  "assay": "crystal structure; h1F3 Fab and PcrV (130-263) mixed at a molar ratio of 1:2 in TBS with 0.5 mM TCEP at 4°C overnight, equimolar complex separated by Superdex200; crystals by sitting drop in 0.1 M acetate-Na pH 5.6, 24% PEG3350, 0.125 M CaCl2 at 20°C",
  "conditions": "both partners purified",
  "data": [
    {"binder": "h1F3 Fab (Fab, V domains shown, Fab part of the heavy chain of h1F3 (humanized from mouse m1F3 by CDR grafting with H93 and H94 back-mutation, human IgG4Pro format); light chain of h1F3 (has the mouse residue Ala at L128); also called Fab fragment of h1F3; pre-optimized COT-143 (Fab); source: papain digestion of h1F3, purified (HiTrap Protein A flow-through, Mono S, Superdex200)) VH: QVQLVQSGAEVKKPGASVKVSCKASGYSFTSYWMHWVRQAPGQGLEWMGEINPSNGRTNYNEKFNTRVTMTRDTSTSTVYMELSSLRSEDTAVYYCVLYGNYVVYYTMDYWGQGTTVTVSS VL: DIQLTQSPSFLSASVGDRVTITCSASTSVSYMEWYQQKPGKAPKLLIYTTSKLASGVPSRFSGSGSGTEFTLTISSLQPEDFATYYCHQWRNYPFTFGQGTKLEIK", "values": [
      {"measurement": "binding result", "value": "binds"}
    ]}
  ]
}
